Test results published in US20210060068A1 (published 2021).
One block for each binder: values may come before it.

Key:
Assay in all cases: SPR
wild-type mouse IL-2Rβ = target: T1, wild-type mouse IL-2Rβ (UniProt P16297 27-240)
T1 chain: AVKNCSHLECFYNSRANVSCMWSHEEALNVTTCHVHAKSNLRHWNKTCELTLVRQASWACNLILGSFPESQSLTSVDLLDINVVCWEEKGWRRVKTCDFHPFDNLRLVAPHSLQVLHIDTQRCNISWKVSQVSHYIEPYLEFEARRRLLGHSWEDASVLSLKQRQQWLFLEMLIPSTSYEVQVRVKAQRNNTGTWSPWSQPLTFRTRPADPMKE

163 = target: 163
180 = target: 180
170 = target: 170
148 = target: 148
176 = target: 176
151 = target: 151
175 = target: 175
146 = target: 146
182 = target: 182
149 = target: 149
145 = target: 145
160 = target: 160
150 = target: 150
162 = target: 162
177 = target: 177
161 = target: 161
181 = target: 181
147 = target: 147
157 = target: 157
165 = target: 165
172 = target: 172

Kd (wild-type mouse IL-2Rβ): 4 µM
B1: wild-type mouse IL-2 (ligand)
chain: APTSSSTSSSTAEAQQQQQQQQQQQQHLEQLLMDLQELLSRMENYRNLKLPRMLTFKFYLPKQATELKDLQCLEDELGPLRHVLDLTQSKSFQLEDAENFISNIRVTVVKLKGSDNTFECQFDDESATVVDFLRRWIAFCQSIISTSPQ

Kd 163: 1 µM
Kd 180: 6 µM
Kd 170: 2 µM
Kd 148: 4 µM
Kd 176: 1 µM
Kd 151: 2 µM
Kd 175: 4 µM
Kd 146: 0.6 µM
Kd 182: 3 µM
Kd 149: 4 µM
Kd 145: 4 µM
Kd 160: 1 µM
Kd 150: 3 µM
Kd 162: 3 µM
Kd 177: 3 µM
Kd 161: 3 µM
Kd 181: 5 µM
Kd 147: 8 µM
Kd 157: 4 µM
Kd 165: 1 µM
Kd 172: 2 µM
B2: orthoIL-2Rβ (receptor)
chain: AVKNCSHLECFYNSRANVSCMWSHEEALNVTTCHVHAKSNLRHWNKTCELTLVRQASWACNLILGSFPESQSLTSVDLLDINVVCWEEKGWRRVKTCDFHPFDNLRLVAPHSLQVLHIDTQRCNISWKVSQVSDFIEPYLEFEARRRLLGHSWEDASVLSLKQRQQWLFLEMLIPSTSYEVQVRVKAQRNNTGTWSPWSQPLTFRTRPADPMKE
